Where two headings read alike, the source gives them in different places.

Holding throughout (test): split reporter
Assay [1] deals with T1, Mpd1p (S. cerevisiae, UniProt Q12404 22-318).
T1 sequence: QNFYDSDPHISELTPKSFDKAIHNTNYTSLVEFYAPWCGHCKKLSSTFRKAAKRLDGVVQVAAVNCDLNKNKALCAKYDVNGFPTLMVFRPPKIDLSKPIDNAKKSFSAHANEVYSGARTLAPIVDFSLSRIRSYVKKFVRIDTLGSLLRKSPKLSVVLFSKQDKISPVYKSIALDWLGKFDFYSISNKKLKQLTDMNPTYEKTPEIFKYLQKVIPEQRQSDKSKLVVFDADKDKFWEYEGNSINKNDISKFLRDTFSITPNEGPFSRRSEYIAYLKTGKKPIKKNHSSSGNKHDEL

Another assay deals with T2, Sil1p (S. cerevisiae, UniProt Q08199 20-421).
T2 sequence: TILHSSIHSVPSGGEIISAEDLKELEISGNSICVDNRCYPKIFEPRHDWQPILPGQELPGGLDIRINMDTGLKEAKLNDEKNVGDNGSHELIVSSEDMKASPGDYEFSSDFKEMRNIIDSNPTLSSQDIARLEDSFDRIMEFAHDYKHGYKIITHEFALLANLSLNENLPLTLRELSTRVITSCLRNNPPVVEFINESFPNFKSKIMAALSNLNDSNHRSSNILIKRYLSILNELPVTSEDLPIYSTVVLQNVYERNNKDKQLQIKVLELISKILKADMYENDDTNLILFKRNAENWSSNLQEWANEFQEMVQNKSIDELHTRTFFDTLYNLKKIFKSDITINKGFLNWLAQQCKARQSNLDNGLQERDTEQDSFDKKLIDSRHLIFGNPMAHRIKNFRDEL

Assay [2] addresses T3, Yos9p (S. cerevisiae, UniProt Q99220 22-542).
T3 sequence: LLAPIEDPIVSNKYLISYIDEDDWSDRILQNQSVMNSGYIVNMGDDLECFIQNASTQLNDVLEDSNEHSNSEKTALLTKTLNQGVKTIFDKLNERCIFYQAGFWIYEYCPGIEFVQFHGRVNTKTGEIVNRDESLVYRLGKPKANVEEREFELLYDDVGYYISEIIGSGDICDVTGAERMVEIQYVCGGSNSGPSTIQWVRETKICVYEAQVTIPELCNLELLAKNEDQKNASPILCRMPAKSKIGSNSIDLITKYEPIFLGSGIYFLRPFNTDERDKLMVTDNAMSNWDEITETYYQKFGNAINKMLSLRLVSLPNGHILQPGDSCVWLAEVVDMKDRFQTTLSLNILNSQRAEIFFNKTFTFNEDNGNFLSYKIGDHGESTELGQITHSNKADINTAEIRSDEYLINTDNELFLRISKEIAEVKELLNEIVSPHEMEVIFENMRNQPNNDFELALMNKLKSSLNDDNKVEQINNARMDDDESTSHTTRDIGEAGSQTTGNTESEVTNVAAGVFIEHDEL

In another assay the target is T4, Scj1p (S. cerevisiae, UniProt P25303 22-377).
T4 sequence: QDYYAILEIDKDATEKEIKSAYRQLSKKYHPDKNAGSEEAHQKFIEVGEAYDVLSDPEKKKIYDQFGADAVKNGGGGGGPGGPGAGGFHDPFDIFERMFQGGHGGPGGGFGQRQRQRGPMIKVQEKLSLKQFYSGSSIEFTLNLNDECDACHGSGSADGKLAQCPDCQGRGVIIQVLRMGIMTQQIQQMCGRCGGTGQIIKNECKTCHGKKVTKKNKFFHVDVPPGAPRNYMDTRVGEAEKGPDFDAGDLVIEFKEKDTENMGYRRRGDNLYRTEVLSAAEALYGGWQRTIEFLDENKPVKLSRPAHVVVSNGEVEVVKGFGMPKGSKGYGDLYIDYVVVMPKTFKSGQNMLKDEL

In assay [3] the target is T5, Cpr5p (S. cerevisiae, UniProt P35176 23-225).
The target of assay [4] is T1, Mpd1p. The source holds these as a separate data set.
In assay [5] the target is T5, Cpr5p. The source holds these as a separate data set.
The target of a further assay is T6, Pdi1p (S. cerevisiae, UniProt P17967 29-522).
T6 sequence: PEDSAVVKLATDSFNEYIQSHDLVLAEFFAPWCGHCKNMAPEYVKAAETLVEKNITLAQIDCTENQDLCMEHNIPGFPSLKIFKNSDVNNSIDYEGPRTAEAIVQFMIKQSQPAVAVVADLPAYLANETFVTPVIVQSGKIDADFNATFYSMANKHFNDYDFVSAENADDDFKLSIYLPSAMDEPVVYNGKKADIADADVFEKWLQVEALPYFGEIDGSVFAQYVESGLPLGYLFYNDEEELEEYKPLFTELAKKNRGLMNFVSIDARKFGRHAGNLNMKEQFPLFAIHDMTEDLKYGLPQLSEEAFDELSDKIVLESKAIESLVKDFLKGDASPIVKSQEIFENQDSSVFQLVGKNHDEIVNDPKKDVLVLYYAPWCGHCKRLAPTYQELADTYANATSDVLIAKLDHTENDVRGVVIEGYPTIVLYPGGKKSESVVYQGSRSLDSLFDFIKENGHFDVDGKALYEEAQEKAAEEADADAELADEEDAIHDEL

Assay [6] has as its target T3, Yos9p. This is another data set of the same source.

T5 sequence (P35176 23-225): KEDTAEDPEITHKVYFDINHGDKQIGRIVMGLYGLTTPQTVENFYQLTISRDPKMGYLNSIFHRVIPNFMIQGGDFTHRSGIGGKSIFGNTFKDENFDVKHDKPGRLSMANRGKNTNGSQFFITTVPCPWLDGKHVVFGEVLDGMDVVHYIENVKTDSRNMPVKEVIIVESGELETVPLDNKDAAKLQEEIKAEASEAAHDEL

B1: Kar2p (natural protein)
chain: not shown
Take B1: the normalized interacting score is 86% in the assay with Mpd1p [1]; 35% in the assay with Sil1p; 20% in the assay with Yos9p [2]; 10% in the assay with Scj1p; 78% with Cpr5p [3]; 65% in the assay with Mpd1p [4]. This molecule registered a normalized interacting score with Cpr5p [5] of 31%.

B2: Kre5p (natural protein)
chain: WTYSLRYGIPESAQVWSILVHLLGDVDNQLLTNLYPLVTGLDDEIDIQENLVALTSNVLRERYDKEDVADLLELYASLYPMGMIQHDISSNAEQDDANSSYFVLNGNRYEKPDDVFYLKSKDLTIQQKVPDVDVIQPYDVVIGTNSEAPILILYGCPTVIDSDFEEFNRNLFMEAMNGEGKFRFIWRSTCSLDGKSVEYPLTHPLEITLQNGSRMSSIPQLKKILYTVPKEILVGADNDDQLHDLEPEELRELDLRVTSLISEFYQYKKDITATLNFTKSIVNNFPLISKQLIKVSSVNKDIITSNEELNSKGFDYNMLGLYINGQNWKITSLTPYNLLTALKTEYQSLLKITNLLQELEPSKCILDSKFLLNKFSQFSLGKLQNLQPIKMDLHTIPGFSESVIYFNDIESDPQYDELVNSVQAFFDKSKFGELPEIKQNWSEIIFVIDFARLEDSEVKEALGGLVRAVNVVSQGYPQRVGLLPFSSDSDKSVVNKIYELKNSTDNLTELKSFLETMLLADGLSANAKHSKHIPVPDVFHLLDELQIDETSIIINGEIYPFRKNAWNYLIAKVIKKDTEFIRKELSNSSPKNKQISVRDLLHYKSANLRHNKYTPNYFADSVYSSVNNTALESVCSERIGYYTKNEEYNLLHTITLVDDFGSIHALKRLRNLLHTSFVGVRIRIIHVGDISDIWYQLRGSLSQKDPIGSINTFIDALKLKKVKSHTYKKSGLNQLGLHKWLPDIPLFELQKGSFIALNGRFIHLDQNEVPETEHFEAIIKREALRTIDSVFALDLLFPGFSQEIINPDLIEMISSILTRLFYQGTHIYNNGIDYTTESSLPRMDLSEFFRPNNLTMFEDGKSASIDLLLILDPLEERTQMILSLVEQFRPLKFVNIQVILMPTLELNIVPIRRIYVDDADIVKSITSEDSRSDPEVDIEMDVPNSFIVDNNYRIKKLLIELHSFSSKTVLSTGNIDGMGGVCLALVDSAGNIIDKTTTMKTFGYGQFHTDKFLKGCYIKSCDSRYTVQSFSTDGHPDFIPSDSLDILSYNPQKIAVKISEEPTHEEEYEEGRNNDTIINIFTILESGPDEEERYMQMILSILSKCPETQKVNFFILDQPFISDTLRKSCEYINSSDEMRGNVIFLNYEWPQWLRPQRFSSRRRDVSRFLFLDVLLPQNISKVLYMSPTEVPLDPFDIFQFQGLKRAPLGLFRMSGDGYWKEGYWEKMLRENNLEFYSTEPAFLVNLERFRELDAGDKYRIHYQRISTDAMSLVNIGQDLVNNLQLEVPIRFLKGSYKKKLVINDECVSEWKKKINKFASSPGDEDVPGESVSSKYQDSDNAAPLHDEL
Turning to B2, the normalized interacting score with Mpd1p [1] worked out at 21%; with Pdi1p it was 23%; in the assay with Yos9p [2], 64%; in the assay with Cpr5p [3], 59%; with Yos9p [6] it was 16%; with Cpr5p [5] it was 22%.

(Values after paper doi:10.1101/2024.05.21.594841 (bioRxiv, 2024).)
